What was measured:
AKI-primed CD4+ cells [1] = assay: In vitro stimulation of AKI-primed kidney CD4+ cells with Ang II and elevated Na+, IL17 response; assay type: cell-based, rat; conditions: inhibitor 10 μM; Ang II 10^-7 M and 170 mM Na+; 12-14 hours; cells 7 days post I/R
Description: Total RNA was obtained from kidney using Trizol and the Zymogen RNA extraction kit and cDNA was prepared using MMLV enzyme (Invitrogen, Carlsburg, CA). Quantitative real time PCR (qPCR) using gene specific primers was performed using ABI 7500 (Applied Biosystems, Foster City, CA). mRNA values were calculated using 2^−ΔΔCt. Specific primers sequences for IL-6 (catalog #Rn01410330_m1), Kim-1 (#Rn00597703_m1) and IL17 (Rn01757168_m1) were purchased from ThermoFisher (Waltham, MA).
(§1) To evaluate protein expression of IL17 or Orai1, Orai2 or Orai3, cells were restimulated with PMA and ionomycin for 6 hours in the presence of monensin (Golgistop, 1 μg·ml, BD Biosciences) permeabilized with saponin ([…]) and stained with relevant antibody. Cells were scanned using flow cytometry (FACSCalibur, BD Biosciences, San Jose, CA) and scans were analyzed using Flowjo software (Tree Star, Ashland, OR).
CD4+T cells were isolated using the MACS Pan-T cell microbead separation kit (Miltenyl, Glabach, Germany). T cells were stimulated with plate bound anti-CD3 (precoated with 2 μg/mL) and soluble anti-CD28 (1 μg/mL). Cells (2.5×10^5 in 0.25 ml) were incubated 12-14 hours at 37° C. in RPMI medium supplemented with 10% FBS (Invitrogen) in a 48-well plate. Cells were challenged with Ang II (Sigma, 10^−7M) and raising the extracellular Na+ from 140 mM to 170 mM, using a 1 M NaCl solution. Calcium channel inhibitors 2ABP (10 μM, Sigma) AnCoA4 (10 μM, Millipore, Burlington, MA) and YM58483/BTP2 (10 μM) were included to evaluate effects on IL-17.

AKI-primed CD4+ cells [2] = assay: Fura-2 imaging of intracellular Ca2+ responses in AKI-primed CD4+ cells; assay type: cell-based, rat; conditions: superfusate with Ang II and elevated Na+; to levels similar to sham
Description: To assess Ca^2+ responses, fura2 imaging was performed. Briefly, isolated CD4+ T cells were loaded with fura-2AM (2.5 μM, Sigma, St. Louis, MO) for 45 min, washed, placed on poly-lysine (Sigma) coated coverslips and placed in a superfusion chamber with physiological salt solution (PSS) containing 2 mM Ca^2+. The chamber was mounted on an inverted epifluorescence microscope and signal measured with alternating excitation at 340 and 380 nm and emission at 510 nm using the InCa^2+-imaging system (Intracellular Imaging Systems, Cincinnati, OH). Data were acquired at 1.5 Hz and representative tracings were smoothed to the 10 nearest neighbor points using GraphPad Prism. For analysis, an increase in signal intensity of >1 standard deviation from baseline was considered a positive response. Frequency of responding cells was determined from an average 53±19 cells for each animal.

human blood CD4+ cells = assay: In vitro stimulation of human blood CD4+ cells from AKI patients with elevated sodium, IL17 response; assay type: cell-based; conditions: 170 mM Na+, overnight (~12 hours)
Description: For in vitro stimulation of human blood cells, primary T cells were isolated from fresh blood using Straight whole blood CD4 kit from Miltneyli Biotech (Miltenyli, San Diego, CA) according to manufactures' protocol. CD4+T cells were plated at a density of 1×10^6 cells/mL in RPMI medium supplemented with FBS. Cells were stimulated with human anti-CD3/CD28 dynabeads (Gibco; Catalogue no 11161D) along with labeled treatment overnight (˜12 hours). T cells were harvested and incubated with monensin for 6 hours, prior to staining for IL-17 (Table 4).

[3] = test system: renal ischemia reperfusion injury; assay: Bilateral renal ischemia/reperfusion (I/R) injury in rats, 24 hours after reperfusion (Study II); assay type: in vivo, rat
Description: All studies used male Sprague-Dawley rats (250-300 g) that were purchased from Envigo (Indianapolis, IN). Rats were anesthetized with a cocktail of ketamine (100 mg·kg^−1, KetoVed, Vedco Inc, St. Joseph, MO) and xylazine (50 mg·kg^−1, AnaSed, Lloyd Inc, Shenandoah IA). Rats were placed on a heated surgical table to maintain body temperature. A midline incision and either unilateral (left) or bilateral renal ischemia (as indicated in Results) was induced by applying micro-aneurism clamps on the renal pedicles for a period of 40 min. Re-establishment of perfusion was verified by visual examination following removal of the clamps. Rats were provided post-operative analgesia using buprenorphine-SR (1 mg·kg^−1).
Rats were allowed to recover for various periods of time as described in the Results. In Study I, lymphocytes were studied in vitro after recovery for either 2 or 7 days following I/R or sham surgery for evaluation of function in vitro or for FACS analysis. In Study II, the effect of SOCE on kidney injury was studied with the inhibitor YM58483/BPT2 (N-[4-[3,5-Bis(trifluoromethyl)-1H-pyrazol-1-yl]phenyl]-4-methyl-1,2,3-thiadiazole-5-carboxamide; Tocris/Bio-Techne Minneapolis, MN). Rats were pretreated p.o. 2-3 hours prior to surgery with YM58483.BPT2 (1 mg·kg^−1) in sugar-free chocolate pudding following dilution in 100% EtOH, at, a dose previously shown to affect T cell activation in rats. In some experiments, rats were also treated with the IL17Rc (150 ng/day i.p; R&D Systems). In addition, one experiment utilized a model of rhabdomyolysis, induced by injection of 50% glycerol (10 ml/kg) into the hindlimb muscle of rats following 16 hours of water restriction.
To measure creatinine, tail blood was collected in heparin containing tubes and centrifuged to collect plasma. Plasma creatinine was measured using a Pointe Scientific Analyzer and Creatinine Assay reagents using methods outlined by the manufacturer (Pointe Scientific, Canton MI). Urine was collected for 24 hours by placing rats in metabolic cages and urine volume was determined gravimetrically. Urine creatinine was measured using a colorimetric assay adopted for microplate readers. Creatinine clearance was measured using UCr*V/PCr. […]
Freshly harvested kidneys were minced and digested in liberase (2 μg/ml. Roche, Indianapolis IN) for 15 min at 37° C. using Gentle MACs (Miltenyli, San Diego, CA). The digested tissue was filtered through a 100-μm mesh and washed with RPMI containing 10% fetal bovine serum (Invitrogen). Mononuclear cells were isolated using Percol (Sigma) density gradient centrifugation.
as §1
The effect of SOCE on early ischemic kidney injury was studied with the inhibitor YM58483/BPT2 (N-[4-[3,5-Bis(trifluoromethyl)-1 H-pyrazol-1-yl]phenyl]-4-methyl-1,2,3-thiadiazole-5-carboxamide; Tocris/Bio-Techne Minneapolis, MN). Rats were pretreated 2-3 hours prior to surgery, p.o. in sugar-free chocolate pudding following dilution in 100% EtOH, at 1 mg·kg^−1, a dose previously shown affect T cell activation in rats. To evaluate if SOCE influences Th17 cells in AKI, rats were fed YM58483/BPT2 approximately 2 hours prior to […] and reperfusion. […] YM58483/2BPT2 also attenuated the infiltration of total CD4+ and CD8+ T-cells, B-cells, and dendritic cells following I/R (FIGS. 3C, 3D, 3E, and 3F).

[4] = 24 hours following ischemia reperfusion, mean ± S.E.

Molecule: NCCOB(c1ccccc1)c1ccccc1 [2-ABP, 2-aminoethoxydiphenyl borate]
- increase in IL17+ cells (IL17 protein, FACS) (AKI-primed CD4+ cells [1]): completely blocked
- increase of IL17 mRNA (AKI-primed CD4+ cells [1]): completely blocked

Molecule: COc1cc2c(cc1-c1coc3c4c(ccc3c1=O)OC(C)(C)C=C4)OCO2 [AnCoA4]
- increase in IL17+ cells (IL17 protein, FACS) (AKI-primed CD4+ cells [1]): completely blocked
- increase of IL17 mRNA (AKI-primed CD4+ cells [1]): completely blocked
- percentage of Ca2+-responding cells (AKI-primed CD4+ cells [2]): significantly attenuated
- IL17 response to elevated extracellular sodium (human blood CD4+ cells): inhibited

B1: IL-17Rc: the IL17Rc receptor antagonist (R&D Systems), 150 ng/day i.p. (protein, UniProt Q8NAC3 21-538, looked up)
extracellular domain: LERLVGPQDATHCSPVSLEPWGDEERLRVQFLAQQSLSLAPVTAATARTALSGLSGADGRREERGRGKSWVCLSLGGSGNTEPQKKGLSCRLWDSDILCLPGDIVPAPGPVLAPTHLQTELVLRCQKETDCDLCLRVAVHLAVHGHWEEPEDEEKFGGAADSGVEEPRNASLQAQVVLSFQAYPTARCVLLEVQVPAALVQFGQSVGSVVYDCFEAALGSEVRIWSYTQPRYEKELNHTQQLPDCRGLEVWNSIPSCWALPWLNVSADGDNVHLVLNVSEEQHFGLSLYWNQVQGPPKPRWHKNLTGPQIITLNHTDLVPCLCIQVWPLEPDSVRTNICPFREDPRAHQNLWQAARLQLLTLQSWLLDAPCSLPAEAALCWRAPGGDPCQPLVPPLSWENVTVDKVLEFPLLKGHPNLCVQVNSSEKLQLQECLWADSLGPLKDDVLLLETRGPQDNRSLCALEPSGCTSLPSKASTRAARLGEYLLQDLQSGQCLQLWDDDLGALWACPMDKYIHKR
modifications: extracellular domain
- infiltration of total CD4+ T-cells in kidney (vs vehicle) ([3]; 24 hours following I/R): significantly reduced
- kidney CD4+/IL17+ cells (vs vehicle) ([3]; 24 hours following I/R): significantly reduced
- CD4+ renal lymphocyte content [3, 4]: 19229 ± 3175 cells/gram
- CD4+/IL-17+ cells [3, 4]: 1567 ± 294 cells/gram
- CD8+ cells renal lymphocyte content [3, 4]: 4356 ± 559 cells/gram
- CD8+IL-17+ cells [3, 4]: 251 ± 118 cells/gram
- Serum Creatinine [3, 4]: 3.96 ± 1.2 mg/dL
- Total IL-17+ cells [3, 4]: 8447 ± 1753 cells/gram

— patent publication US20250073202A1, “METHODS TO TREAT RENAL DISORDERS USING CALCIUM CHANNEL INHIBITORS” (The Trustees of Indiana University, priority 2018, published 2025)
